This assay has as its target T1, recombinant human RNF43 extracellular domain (human, UniProt Q68DV7 24-197).
T1 construct: extracellular domain; also called huRNF43; human RNF43 ECD
T1 sequence (looked up): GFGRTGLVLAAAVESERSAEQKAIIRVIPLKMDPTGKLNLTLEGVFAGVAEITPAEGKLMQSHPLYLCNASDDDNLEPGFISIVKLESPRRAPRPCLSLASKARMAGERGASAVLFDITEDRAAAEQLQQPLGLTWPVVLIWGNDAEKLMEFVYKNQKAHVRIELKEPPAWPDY
Briefly: SPR Biacore 8K; antibody captured on Protein A; RNF43 ECD analyte; 25 C. As to the method: Antibodies were screened for binding to recombinant human RNF43 and ZNRF3 ECDs using a Biacore® 8 k instrument (GE Life Sciences). Briefly, antibodies diluted to 1 μg/ml in 1×HBSP buffer (Cytiva, BR100368) were captured on a Sensor Chip Protein A (GE Life Sciences) using a flow rate of 10 μl/minute and a contact time of 60 seconds. Binding of recombinant human RNF43 and ZNRF3 extracellular domain to the captured antibodies was analyzed at 25° C. using a single cycle kinetics method with a flow rate of 30 μl/minute, a contact time of 180 seconds and a dissociation time of 600 seconds. The concentration of recombinant human RNF43 and ZNRF3 extracellular domain in the single cycle kinetics were 0, 0.8, 4, 20, and 100 nM. Between cycles, the chip was regenerated using 10 mM Glycine HCl pH 1.5 injected for 30 seconds at 30 μl/minute. Data were evaluated using Biacore 8K Evaluation software (GE Life Sciences). Kinetic constants were obtained using a 1:1 binding model with the parameter RI set to zero. Cell surface ligase antibodies with sub-nanomolar affinities may provide advantages in certain instances, for example, in the degradation efficiency which is correlated with the durability of the ternary complex as shown in FIG. 5D.
On the technique in general: Surface plasmon resonance follows binding to a sensor surface in real time, without labels.

B1: RNF43-170 (antibody, V domains shown)
VH: EVQLVESGGGLVPPGRSLKLSCVASGFTFNDYYMAWVRQAPTKGLEWVASISYEGRRTYYGDSVKGRFTISRDNAKSTLYLQMNSLRSDDTATYYCATHSNYIFDYWGQGVMVTVSS
VL: DIRMTQSPASLSASLGETVNIECLASEDIYSDFAWFQQKPGQSPLLLIYNGNSLQNGVPSRFSGSGSGTQYSLKINSLQSEDVATYFCQQYNNYPPTFGGGTKLELK
notes: Rat clone; VH/VL only
With B1, the Kd (usually the free concentration of one partner at which half of the binding sites on the other are occupied at equilibrium, for simple one-to-one binding) was 76 nM.

B2: RNF43-179 (antibody, V domains shown)
VH: EVQLVESGGGLVQPGRSLKLSCVASGFTFNDYYMAWVRQAPKKGLEWVASINYEGSRTYYGDSVKGRFTISRDNAKSTLYLQMNSLRSEDTATYYCATHSNYIFDNWGQGVMVTVSS
VL: DIRMTQSPASLSASLGETVNIECLASEDIYSDFAWFQQKPGQSPLLLIYNGNNLQNGVPSRFSGSGSGTQYSLKINSLQSEDVATYFCQQYNNYPPTFGGGTKLELK
notes: Rat clone; VH/VL only
Consider B2, for which the dissociation constant Kd stood at 31.7 nM.

B3: RNF43-152 (antibody, V domains shown)
VH: QVTLKESGPGILQPSQTLSLTCTFSGSSLSTYGMGVGWIRQPSGKGLEWLANIWWDDDKYYNPSLKNRLTISKDTSNNQSFLKIANVDTADTATYYCARIDGTYNYFDYWGQGVMVTVSS
VL: DVVLTQTPSRLSATIGQSVSISCRSSQSLLDSYGNTYLSWFLQRPGQSPQRLIFLVSNLGSGVPNRVSGSGSGTDFTLKISGVEAEDLGVYYCMQTTHDPLTFGSGTKLEIK
notes: Rat clone; VH/VL only
Regarding B3, the Kd was 17.8 nM.

B4: RNF43-129 (antibody, V domains shown)
VH: EVQLVESGGGLVQPGRSMKLSCAASGFTFSNYDMAWVRQAPKKGLEWVASITYDVSSTYYRDSVKGRFTISRDNAKSTLYLQMDSLRSEDTATYYCTTLDRAGYYYDGYGFYWFANWGQGTLVTVSS
VL: DIQMTQSPSSMSVSLGDTVTITCRASQDVKIYVNWFQQKPGKSPRQMIYRATNLADGVSSRFSGSRSGSDYLFTISSLESEDVADYHCLQYDEYPPTFGSGTKVEIK
notes: Rat clone; VH/VL only
Consider B4, for which the dissociation constant (Kd) was found to be 1.17 nM.

B5: RNF43-33 (antibody, V domains shown)
VH: QEQLKESGPGLVQPSQTLSLTCTVSGFSLTSYNVHWVRQPPRKGLEWMGRMRYNGDTSYNSALKSRLSISRDTSKNQVFLKMNSLQTDDTGTYYCARGPLWDYWGQGVMVTVSS
VL: DVVLTQTPPTLSATIGQSVSVSCRSSQSLLHSNGNTYLNWLLQRPGQPPQLLIYLVSRLESGVPNRFSGSGSGTDFTLKISGVEAEDLGVYYCVQSTHAPYTFGAGTKLELK
notes: Rat clone; VH/VL only
Consider B5, for which the Kd turned out to be 63 nM.

B6: RNF43-106 (antibody, V domains shown)
VH: QIQLGQSGPELTKPGESVKISCKASGYTFSDYPIHWVKQAPGKGLKWMGWINTYTGKPTFADDFKGRFVFSLEASASTANLQISNLKNEDTATYFCALGPISTVFYAMDAWGQGTSVTVSS
VL: DIQMTQSPSFLSASVGDRVTINCKASQNINKYLNWYQQKLGEAPKRLIYNTNNLQTGIPSRFSGSGSGTDYTLTISSLQPEDFATYFCLQHNSFPYTFGAGTKLELK
notes: Rat clone; VH/VL only
For B6, the dissociation constant (Kd) turned out to be 15.6 nM.

B7: RNF43-210 (antibody, V domains shown)
VH: QIQLVQSGPELKKPEESVKISCKASGYIFTDYLIHWVKQAPGEGLKWMGWINTYTGKPTYADDFKGRFVFSLEASASTAILQISNLKNEDTATYFCALGPITTVVYVMDAWGQGTSVTVSS
VL: DIQMTQSPSFLSASVGDRVTINCKASQNINKYLNWYQQKLGEAPKRLIYNTNNLQTDIPSRFSGSGSGADYTLTINSLQPEDFATYFCLQHNSFPYTFGAGTKLELK
notes: Rat clone; VH/VL only
For B7, the Kd stood at 13.4 nM.

B8: RNF43-123 (antibody, V domains shown)
VH: QIQLVQSGPELKKPGESVKISCKASGYTFTDYPMHWVKQAPGKGLKWMGWINTYTGKPTYADDFKGRFVFSLEASANTANLQISNLKNDDTATYFCALGPISTVFYAVDAWGQGTSVTVSS
VL: DIQMTQSPSFLSASVGDRVTINCKASQNINKYLNWYQQKVGEAPKRLMYNTNNLQTGIPSRFSGSGSGTDYTLTISSLQPEDFATYFCLQHNSFPYTFGPGTELELK
notes: Rat clone; VH/VL only
As for B8, the Kd came to 13.4 nM.

B9: RNF43-9 (antibody, V domains shown)
VH: QSLEESGGDLVQPEGSLTLTCTASGFSFSSSCYMCWVRQAPGKGLEWIACINTGSSGSTYYASWAKGRFTISKTSSTTVTLQMTILTAADTATYFCARGYAGYTGYGQFNLWGPGTLVTVSS
VL: QIVMTQTPASVEAAVGGTVTIKCQASQSISNYLAWYQQKPGQRPKLLIYDASKLASGVPSRFKGSGSGTQFTLTISGVECADAATYYCQQGYTMNNVDNAFGGGTEVVVK
notes: Rabbit clone; VH/VL only
Turning to B9, the Kd is 1.8 nM.

B10: RNF43-13 (antibody, V domains shown)
VH: QSLEESGGGLVKPGGTLTLTCKASGIDFSGYYYMCWVRQAPGKGLEWIACIYTTSGSAWYASWAKGRFTISITTSLNTVTLQMTSLTATDTATYFCVRYANYGGYNYPEFGVLWGPGTLVTVSS
VL: AYDMTQTPASVEVAVGATVTIKCQASEDIYNLLAWYQQKPGQPPKLLIYRASKLASGVPSRFSGSGSGTEFTLTISSVQCDDAATYYCQQGYSISNVENPFGGGTEVVVK
notes: Rabbit clone; VH/VL only
For B10, the Kd worked out at 99.6 nM.

B11: RNF43-117 (antibody, V domains shown)
VH: QVSLKESGPGMLQPSQTLSLTCTFSEFSLSTYGLGVGWIRQPSGKGLEWLANIWWDDDKYYNPSLKNRLTISKDTSNNQAFLKITNVDTADTATYYCARIDGRWHYFDYWGQGDRVIVSS
VL: DIVLTQTPSILSATIGQSVSISCRSTQSLLDSDGNTYLYWFLQRPGQSPQRLIYLVSNLGSGVPNRFSGSGSGTDFTLKISGVEAEDLGFYYCMQGAHTPLTFGSGTKLEIK
notes: Rat clone; VH/VL only
As to B11, the Kd was 19.8 nM.

B12: RNF43-201 (antibody, V domains shown)
VH: QVTLKEYGPGILQPSQTLSLTCTFSGFSLRTYGMGVGWIRQPSGKGLEWLTNIWWDDDKYYNPSLKNRLTISKDTSNNQAFLKITNVDTEDSATYYCARIDGTFNYFDYWGQGVMVTVSS
VL: DVVLTQTPSRLSATIGQSVSISCRSSQSLLDSDGNTYLYWFLQRPGQSPQRLIYLVSNLGSGVPNRVSGSGSGTDFTLKISGVEAEDLGIYYCLQATHAPLTFGSGTKLEIK
notes: Rat clone; VH/VL only
With B12, the Kd was 9.9 nM.

B13: RNF43-69 (antibody, V domains shown)
VH: EVQLVESGGGLVQPGRSLKLSCAASGFTFSDYYMAWVRQAPKKGLEWVASITYEGSSTYYGDSVKGRFTISRDNAKSTLYLQMNSLRSEDTATFYCARHLDYGYDYAWYFDFWGPGTMVTVSS
VL: DIVLTQSPTTLSVTPGETVSLSCRTSHSIGTNLHWYQQKTNESPRLLIKYASQSISGIPSRFSASGSGTDFTLNINNVEFDDVSSYFCQQTQSWPLTFGSGTKLEIK
notes: Rat clone; VH/VL only
Turning to B13, the Kd stood at 16.8 nM.

B14: RNF43-75 (antibody, V domains shown)
VH: EVQLVESGGGLVQPGRSLKLSCAASGFTFSDHYMAWVRQAPKKGLEWVASITYEGSSTYYGDSVKGRFTISRDNAKSTLYLQMNSLRSEDTATFYCARHLDYGYDYAWSFDFWGPGTMVTVSS
VL: DIVLTQSPIILSVTPGETVSLSCRTSHSIGTNLHWYQQKTNESPRLLINYASQSISGIPSRFSASGSGTDFTLNINNVEFEDVASYYCQQTQRWPLTFGSGTKLEIK
notes: Rat clone; VH/VL only
For the molecule B14, the Kd is 4.65 nM.

B15: RNF43-221 (antibody, V domains shown)
VH: EVQLVESGGGLVQPGRSLKLSCTASGFTLSDYAMAWVRQAPEKGLEWVATISYDGSRTYYGGSVKGRFTISRDNAENILYLQMDSLRSADTATYYCANSATPHYWGQGVMVTVSS
VL: DVVMTQTPASLSLAIGQPASISCKSSQSLLDTSRKTFLNWILQRPGQSPKRLIYQVSKLYSEVPDRFSGSGSETEFTLKISRVEAEDLGVYYCWQGTHFPDTFGAGTKLELK
notes: Rat clone; VH/VL only
B15: the dissociation constant Kd amounted to 51.6 nM.

B16: RNF43-180 (antibody, V domains shown)
VH: EAQLVESGGGLVRPGRSLKLTCAASGFTFSHYDMAWVRQAPARGLEWVASIGPGGGLTHYRDSVKGRFTVSRDHAESSLYLQMDSLRSEDTATYYCARHYGWSYFDYWGQGVMVTVSS
VL: DIQMTQSPSFLSASLGDSITITCHASQNIKGWLAWYQQKSGNAPELLIYTASGLRSGVPSRFSGSGSGTDYILTISNLQPEDFATYYCQHYQSFPNTFGAGTKLELR
notes: Rat clone; VH/VL only
Turning to B16, the dissociation constant Kd amounted to 2.81 nM.

B17: RNF43-35 (antibody, V domains shown)
VH: QVQLKESGPGLVQPSQTLSLTCTVSGFSLTTYSVHWVRQHSGKNLEWMGRMWTAGDTSYNSAFTSRLNIFRDTSKSQVFLKMNSLQTEDTGTYYCARSSYTSGYPFDSWGQGVMVTVSS
VL: DTVLTQSPALAVSPGERVTISCRASESVSKLMHWYQQRPGQQPQLLIYLTSHLASGVPARFSGSGSGTDFTLTIDPVEADDTATYYCQQSRNDPTFGAGTKLELK
notes: Rat clone; VH/VL only
B17: the dissociation constant (Kd) was determined as 0.07 nM.

B18: RNF43-90 (antibody, V domains shown)
VH: QVQLKESGPGLVQPSQTLSLTCTVSGFSLTSYSVHWVRQHSGNRLEWMGRMWSAGDTSFNSAFTSRLNITRDTSKSQVFLKMNSLQTEDTGTYYCVRSFYNAGYPFDYWGQGVMVTVSS
VL: DTVLTQSPALAVSPGERVTISCRASDSVIKLMNWYQQKPGQRPKLLIYLASHLASGVPARFSGSGSGTDFTLTIDPVETDDTATYYCQQSRNDPTFGPGTKLELK
notes: Rat clone; VH/VL only
Regarding B18, the equilibrium dissociation constant (Kd) came to 0.29 nM.

B19: RNF43-107 (antibody, V domains shown)
VH: EVQPVESGGGLVQPGRSLKLSCPASGFTFSNYDMAWVRQAPTKGLEWVASISPSGGRTYYRDSVKGRFTISRDNSKSTLYLQMDSLRSEDTATFYCATHRYYSYFDFWGQGVMVTVSS
VL: DIQMTQSPASLSASLGETISIDCRTSEDIYNNLAWYQQKSGRSPQLLISATNRLQDGVPSRFSGSGSGTQYSLKISGMQPEDEGVYFCLQGSKYPYTFGTGTKLELK
notes: Rat clone; VH/VL only
For the molecule B19, the Kd came to 0.341 nM.

The values are drawn from patent US20240101708A1 (Genentech, published 2024).
